The text below walks through data of patent publication US6582902B1, “Method for deriving epitopes” (priority 1992, dated 2003).

In data set [1] the test system is anti-g10 serum. As to the kind of experiment: Immunoprecipitation of [32P]-labeled in vitro transcribed RNA with anti-g10 serum. The following applies: FIG. 4; compared with protein A Sepharose beads alone and pre-immune serum. The data set is classed as binding, rabbit. The procedure:
Various antisera were used to precipitate either [32P] labeled in vitro transcribed D10 RNA or control transcripts. Bound RNA was analyzed on a denaturing 6% polyacrylamide gel by autoradiography. Lanes 1-4 are precipitations of D10 RNA with the following antisera: 1, anti-g10 serum; 2, preimmune serum; 3, no antibody; 4, anti-g10 serum. Other transcripts were precipitated with the anti-g10 serum as follows: 5, a control RNA identical to the D10 epitope but with loop sequence 5′-CACCAUAUAA-3′(SEQ ID NO:5); 6, an unrelated RNA; 7, an RNA containing the loop sequence 5′-CUGACCCCGU-3′(SEQ ID NO:6); 8-11, supernatants from the immunoprecipitations shown in lanes 4-7, diluted to approximate radioactive equivalents.
In vitro transcribed [^32P] radiolabeled RNA was immunoprecipitated with anti-g10 serum or with an anti-U1 RNA serum (EW). Bound RNA was analyzed using a denaturing 6% acrylamide gel and autoradiography: Panel A: The D10 DNA construct (FIG. 2) was cloned into the BamHI site of PGEM-3zf (+) to produce tagged vector RNA, and transcripts with different 3′termini were generated with SP6 RNA polymerase. […] For unexplained reasons, a small amount of endogenous U1 RNA was detected in the presence of total HeLa cell extract (lanes 12-14). […]

Data set [2] relates to anti-g10 serum. As to the kind of experiment: Selection of RNA from degenerate pool by immunoprecipitation with anti-g10 serum. Type of data set: binding, rabbit. The following applies: three cycles, high stringency washing (0.5 M urea). The text has this:
Whereas the g10 peptide is a useful epitope tag for analyzing complexes containing protein, an RNA epitope tag would be equally useful for studying complexes containing RNA. The anti-g10 serum was presented with a degenerate pool of RNA containing 1,048,576 unique species, assuming incorporation of four different nucleotides at 10 randomized loop positions (FIG. 2). These RNAs were transcribed from approximately 1×10^11 molecules of degenerate oligodeoxynucleotide template (D. Tsai et al., Nucl. Acids Res. 19, 4931-4936 (1991)). Assuming that most templates are transcribed at least once, all possible RNA species should be redundantly represented. RNA was prepared by in vitro transcription of PCR-generated templates in accordance with known techniques (D. Tsai et al., Nucl. Acids Res. 19, 4931-4936 (1991)). The transcripts were immunoprecipitated with the anti-g10 serum as follows: Protein A Sepharose beads (Sigma, 4 mg per […]) were washed in NT2 buffer (50 mM Tris [pH 7.4], 150 mM NaCl, 0.05% Nonidet P-40) (C. Query et al., Cell 57, 89-101 (1989)), mixed with […] of anti-g10 serum, incubated on ice for 10 min, and washed in NT2. […]

B1: D10 RNA: single RNA species selected from the degenerate pool by anti-g10 serum (SEQ ID NO:3); U1 stem II with loop UGGUGGAGCA (nucleic acid)
chain: GGGCCACCAACGACAUUGGGCGAGGCUUAUCCUGGUGGAGCAGGAUGUGCUGACCCCGUUGAUAUAAAUAGUGCCCAUGGAUC
modifications: chemistry not given here
notes: U1 stem II with loop UGGUGGAGCA
Regarding B1, the “binding / recognition of RNA by anti-g10 serum” value with anti-g10 serum [1] is given as “bound only to the anti-g10 serum”. The “isolates obtained after antibody selection” value with anti-g10 serum [2] is on record as 45 out of 45.
